Reference: patent publication US12269859B2, “Synthetic immune receptors and methods of use thereof” (Angeles Therapeutics, Inc., priority 2016, dated 2025)

B1: 012517-D12 (protein)
chain: MALPVTALLLPLALLLHAARPLEGKPIPNPLLGLDSTGSGEDLKNVFPPEVAVFEPSKAEIAHTQKATLVCLATGFYPDHVELSWWVNGKEVHSGVCTDPQPLKEQPALNDSRYCLSSRLRVSATFWQNPRNHFRCQVQFYGLSENDEWTQDRAKPVTQIVSAEAWGRADCGITSASYHQGVLSATILYEILLGKATLYAVLVSALVLMAMVKRKDSRGRAKRSGSGATNFSLLKQAGDVEENPGPTSMALPVTALLLPLALLLHAARPDVVMTQTPLSLSVTPGQPASISCRSSQSLVHSNGLTYLHWYLQKPGQSPQLLIYKVSNRFSGVPDRFSGSGSGTDFTLKISRVEAEDVGVYFCSQSTHVPPFTFGGGTKVEIKGGGGSGGGGSGGGGSEVQLVESGGGLVQPGGSLRLSCAASGFTFSDYYMAWVRQAPGKGLEWVASINYDGESTYYVDSVKGRFTISRDNAKNSLYLQMNSLRAEDTAVYYCARDRGYYFDYWGQGTTVTVSSTREQKLISEEDGSGIQNPDPAVYQLRDSKSSDKSVCLFTDFDSQTNVSQSKDSDVYITDKCVLDMRSMDFKSNSAVAWSNKSDFACANAFNNSIIPEDTFFPSSDVPCDVKLVEKSFETDTNLNFQNLSVIGFRILLLKVAGFNLLMTLRLWSSRAKRSGSGVKQTLNFDLLKLAGDVESNPGPSRGHMTEYKPTVRLATRDDVPRAVRTLAAAFADYPATRHTVDPDRHIERVTELQELFLTRVGLDIGKVWVADDGAAVAVWTTPESVEAGAVFAEIGPRMAELSGSRLAAQQQMEGLLAPHRPKEPAWFLATVGVSPDHQGKGLGSAVVLPGVEAAERAGVPAFLETSAPRNLPFYERLGFTVTADVEVPEGPRTWCMTRKPGA
B2: 010417-Z03 (protein)
chain: MALPVTALLLPLALLLHAARPLEGKPIPNPLLGLDSTGSGEDLKNVFPPEVAVFEPSKAEIAHTQKATLVCLATGFYPDHVELSWWVNGKEVHSGVCTDPQPLKEQPALNDSRYCLSSRLRVSATFWQNPRNHFRCQVQFYGLSENDEWTQDRAKPVTQIVSAEAWGRADCGITSASYHQGVLSATILYEILLGKATLYAVLVSALVLMAMVKRKDSRGRAKRSGSGATNFSLLKQAGDVEENPGPTSTMALPVTALLLPLALLLHAARPDIQMTQSPSSLSASVGDRVTITCKASQDVGIAVAWYQQKPGKVPKLLIYWASTRHTGVPDRFSGSGSGTDFTLTISSLQPEDVATYYCQQYSSYPYTFGQGTKVEIKGGGGSGGGGSGGGGSEVQLVESGGGLVQPGGSLRLSCAASGFDFSRYWMSWVRQAPGKGLEWIGEINPDSSTINYAPSLKDKFIISRDNAKNSLYLQMNSLRAEDTAVYYCARPDGNYWYFDVWGQGTLVTVSSTREAAAKEIVMTQSPATLSLSPGERATLSCRASQDISKYLNWYQQKPGQAPRLLIYHTSRLHSGIPARFSGSGSGTDYTLTISSLQPEDFAVYFCQQGNTLPYTFGQGTKLEIKGGGGSGGGGSGGGGSQVQLQESGPGLVKPSETLSLTCTVSGVSLPDYGVSWIRQPPGKGLEWIGVIWGSETTYYNSSLKSRVTISKDNSKNQVSLKLSSVTAADTAVYYCAKHYYYGGSYAMDYWGQGTLVTVSSTREQKLISEEDGSGIQNPDPAVYQLRDSKSSDKSVCLFTDFDSQTNVSQSKDSDVYITDKCVLDMRSMDFKSNSAVAWSNKSDFACANAFNNSIIPEDTFFPSSDVPCDVKLVEKSFETDTNLNFQNLSVIGFRILLLKVAGFNLLMTLRLWSSRAKRSGSGVKQTLNFDLLKLAGDVESNPGPSRGHMTEYKPTVRLATRDDVPRAVRTLAAAFADYPATRHTVDPDRHIERVTELQELFLTRVGLDIGKVWVADDGAAVAVWTTPESVEAGAVFAEIGPRMAELSGSRLAAQQQMEGLLAPHRPKEPAWFLATVGVSPDHQGKGLGSAVVLPGVEAAERAGVPAFLETSAPRNLPFYERLGFTVTADVEVPEGPRTWCMTRKPGA
B3: 022817-N08 (protein)
chain: MALPVTALLLPLALLLHAARPDVVMTQTPLSLSVTPGQPASISCRSSQSLVHNNGNTYLHWYLQKPGQSPQLLIYKVSNRFSGVPDRFSGSGSGTDFTLKISRVEAEDVGVYFCSQSTHVPPYTFGGGTKVEIKLEEQKLISEEDLGSGEDLKNVFPPEVAVFEPSKAEIAHTQKATLVCLATGFYPDHVELSWWVNGKEVHSGVCTDPQPLKEQPALNDSRYCLSSRLRVSATFWQNPRNHFRCQVQFYGLSENDEWTQDRAKPVTQIVSAEAWGRADCGITSASYHQGVLSATILYEILLGKATLYAVLVSALVLMAMVKRKDSRGRAKRSGSGATNFSLLKQAGDVEENPGPTSMDWIWRILFLVGAATGAHSFEEVQLVESGGGLVQPGGSLRLSCAASGFTFSDYYMAWVRQAPGKGLEWVAEINYDGSSTYYVDSVKGRFTISRDNAKNSLYLQMNSLRAEDTAVYYCARDRGFYFDYWGQGTTVTVSSTREQKLISEEDLGSGIQNPDPAVYQLRDSKSSDKSVCLFTDFDSQTNVSQSKDSDVYITDKCVLDMRSMDFKSNSAVAWSNKSDFACANAFNNSIIPEDTFFPSSDVPCDVKLVEKSFETDTNLNFQNLSVIGFRILLLKVAGFNLLMTLRLWSSRAKRSGSGVKQTLNFDLLKLAGDVESNPGPSRGHMTEYKPTVRLATRDDVPRAVRTLAAAFADYPATRHTVDPDRHIERVTELQELFLTRVGLDIGKVWVADDGAAVAVWTTPESVEAGAVFAEIGPRMAELSGSRLAAQQQMEGLLAPHRPKEPAWFLATVGVSPDHQGKGLGSAVVLPGVEAAERAGVPAFLETSAPRNLPFYERLGFTVTADVEVPEGPRTWCMTRKPGA
B4: 010417-V07 (protein)
chain: MALPVTALLLPLALLLHAARPLEGKPIPNPLLGLDSTGSGEDLKNVFPPEVAVFEPSKAEIAHTQKATLVCLATGFYPDHVELSWWVNGKEVHSGVCTDPQPLKEQPALNDSRYCLSSRLRVSATFWQNPRNHFRCQVQFYGLSENDEWTQDRAKPVTQIVSAEAWGRADCGITSASYHQGVLSATILYEILLGKATLYAVLVSALVLMAMVKRKDSRGRAKRSGSGATNFSLLKQAGDVEENPGPTSTMALPVTALLLPLALLLHAARPDIQMTQSPSSLSASVGDRVTITCKASQDVGIAVAWYQQKPGKVPKLLIYWASTRHTGVPDRFSGSGSGTDFTLTISSLQPEDVATYYCQQYSSYPYTFGQGTKVEIKGGGGSGGGGSGGGGSEVQLVESGGGLVQPGGSLRLSCAASGFDFSRYWMSWVRQAPGKGLEWIGEINPDSSTINYAPSLKDKFIISRDNAKNSLYLQMNSLRAEDTAVYYCARPDGNYWYFDVWGQGTLVTVSSTREAAAKEIVLTQSPATLSLSPGERATLSCSASSSVSYMHWYQQKPGQAPRLLIYDTSKLASGIPARFSGSGSGTDFTLTISSLEPEDVAVYYCFQGSVYPFTFGQGTKLEIKRGGGGSGGGGSGGGGSQVQLQESGPGLVKPSQTLSLTCTVSGGSISTSGMGVGWIRQHPGKGLEWIGHIWWDDDKRYNPALKSRVTISVDTSKNQFSLKLSSVTAADTAVYYCARMELWSYYFDYWGQGTLVTVSSTREQKLISEEDGSGIQNPDPAVYQLRDSKSSDKSVCLFTDFDSQTNVSQSKDSDVYITDKCVLDMRSMDFKSNSAVAWSNKSDFACANAFNNSIIPEDTFFPSSDVPCDVKLVEKSFETDTNLNFQNLSVIGFRILLLKVAGFNLLMTLRLWSSRAKRSGSGVKQTLNFDLLKLAGDVESNPGPSRGHMTEYKPTVRLATRDDVPRAVRTLAAAFADYPATRHTVDPDRHIERVTELQELFLTRVGLDIGKVWVADDGAAVAVWTTPESVEAGAVFAEIGPRMAELSGSRLAAQQQMEGLLAPHRPKEPAWFLATVGVSPDHQGKGLGSAVVLPGVEAAERAGVPAFLETSAPRNLPFYERLGFTVTADVEVPEGPRTWCMTRKPGA

Test system: target antigen-expressing cell line
Assay: Jurkat NFAT-GFP assay, coculture with target cell lines expressing the respective target antigen (summary Table 10A)
Type: cell-based, human
Parameters: key: The signs +/−, +, 2+ etc. after the name of the cell lines indicate the relative degree of positivity on the Jurkat-NFAT-GFP assay as measured by the % GFP positive cells; +: relative degree of positivity on the Jurkat-NFAT-GFP assay as measured by the % GFP positive cells; 2+: relative degree of positivity on the Jurkat-NFAT-GFP assay as measured by the % GFP positive cells
Method in brief: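 Jurkat cells carrying an NFAT-site IL-2 promoter driving GFP were lentivirally transduced with SIRs, puromycin-selected, then cocultured with antigen-expressing target cells at E:T about 1:2 for about 4–18 hours. GFP induction was read by flow cytometry as % GFP-positive cells versus parental Jurkat-NFAT-GFP.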

Molecule	NFAT-GFP ASSAY Positive Cell lines (coculture with L363 cells)	NFAT-GFP ASSAY Positive Cell lines (coculture with U266 cells)	NFAT-GFP ASSAY Positive Cell lines (coculture with NALM6 cells)	NFAT-GFP ASSAY Positive Cell lines (coculture with RAJI cells)
B1	U266 (+), L363 (+)	U266 (+), L363 (+)	–	–
B2	–	–	NALM6	RAJI
B3	(+/−)	U266 (+/−), L363	–	–
B4	(+), L363 (+), U266	(+)	(+), L363 (+), U266	RAJI (+), NALM6
